This data set addresses T1, HY5 (Arabidopsis thaliana, UniProt O24646 1-168).
T1 sequence: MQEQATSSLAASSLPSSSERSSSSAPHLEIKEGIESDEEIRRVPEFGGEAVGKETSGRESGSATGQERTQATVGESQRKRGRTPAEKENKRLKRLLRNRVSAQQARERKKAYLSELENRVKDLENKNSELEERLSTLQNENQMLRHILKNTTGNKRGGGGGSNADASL
As to the kind of experiment: EMSA; EMSA according to manufacturer's protocol (Thermofisher); buffer, salt, pH and temperature not stated. Conditions: protein: recombinant; tags: GST (pDEST15, N-terminal); label: biotin 3' end; blunt. (A gel shift assay detects complexes by their altered migration in electrophoresis.)

The record followed here is PMC11144241, “Nutrient levels control root growth responses to high ambient temperature in plants”.

B1: pNRT1.1-EMSA (G-box probe, NRT1.1 promoter) (dsDNA)
DNA 1: GAGTCACACATGTGTCACTT
DNA 2: AAGTGACACATGTGTGACTC
In the case of B1, the binding result is “binds”.
